Assay results reported in patent publication US20240190985A1 (NEW YORK UNIVERSITY, published 2024).

B1: 10A1 IgG-HCscFv (antibody)
heavy: QVQLQQSGPVLVKPSQTLSLTCAISGDSISSDTTAWSWIRRSPSRGLEWLGWTYYRSKWFNYYAVSVKGRVTINPDTSKNQFSLQLSSVTPEDTAVYYCARGNGNGGMDVWGQGTTVTVSSASTKGPSVFPLAPSSKSTSGGTAALGCLVKDYFPEPVTVSWNSGALTSGVHTFPAVLQSSGLYSLSSVVTVPSSSLGTQTYICNVNHKPSNTKVDKKVEPKSCDKTHTCPPCPAPEAAGGPSVFLFPPKPKDTLMISRTPEVTCVVVDVSHEDPEVKFNWYVDGVEVHNAKTKPREEQYNSTYRVVSVLTVLHQDWLNGKEYKCKVSNKALGAPIEKTISKAKGQPREPQVYTLPPSREEMTKNQVSLTCLVKGFYPSDIAVEWESNGQPENNYKTTPPVLDSDGSFFLYSKLTVDKSRWQQGNVFSCSVMHEALHNHYTQKSLSLSPGKSSGSSGSSSSSGSSSQVQLQQSGPVLVKPSQTLSLTCAISGDSISSDTTAWSWIRRSPSRGLEWLGWTYYRSKWFNYYAVSVKGRVTINPDTSKNQFSLQLSSVTPEDTAVYYCARGNGNGGMDVWGQGTTVTVSSGSSSSSSGSSGSSSSSYVLTQPASASVSPGQTARITCSGDALPKQYAYWYQQKPGQAPVLVIFKDSERPSGVPERFSGSSSGTTVTLTISGAQAEDEADYYCQSVDNSGFYQVFGGGTQLTVL
light: SYVLTQPASASVSPGQTARITCSGDALPKQYAYWYQQKPGQAPVLVIFKDSERPSGVPERFSGSSSGTTVTLTISGAQAEDEADYYCQSVDNSGFYQVFGGGTQLTVLRTVAAPSVFIFPPSDEQLKSGTASVVCLLNNFYPREAKVQWKVDNALQSGNSQESVTEQDSKDSTYSLSSTLTLSKADYEKHKVYACEVTHQGLSSPVTKSFNRGEC
notes: Human IgG1 LALA-PG with the 10A1 scFv appended by a linker to the C-terminus of each heavy chain; Valency of four; also called 10A1 HCscFv; 10A1 HC-scFv
B2: 10A1 Fab (Fab, V domains shown)
VH: QVQLQQSGPVLVKPSQTLSLTCAISGDSISSDTTAWSWIRRSPSRGLEWLGWTYYRSKWFNYYAVSVKGRVTINPDTSKNQFSLQLSSVTPEDTAVYYCARGNGNGGMDVWGQGTTVTVSS
VL: SYVLTQPASASVSPGQTARITCSGDALPKQYAYWYQQKPGQAPVLVIFKDSERPSGVPERFSGSSSGTTVTLTISGAQAEDEADYYCQSVDNSGFYQVFGGGTQLTVL
notes: Fab made in E. coli by attaching VH and VL to CH1 and CL; also called 10A1 in the Fab format; monovalent 10A1
B3: CD99 endogenously expressed on cells (Jurkat, KOPT-K1) (receptor)
chain: DGGFDLSDALPDNENKKPTAIPKKPSAGDDFDLGDAVVDGENDDPRPPNPPKPMPNPNPNHPSSSGSFSDADLADGVSGGEGKGGSDGGGSHRKEGEEADAPGVIPGIVGAVVVAVAGAISSFIAYQKKKLCFKENAEQGEVDMESHRNANAEPAVQRTLLEK
modifications: O-linked glycosylation (natural, on cells)
notes: also called endogenously expressed CD99; CD99 on cells

Experiments:
[1] = biological target: B3; test: flow cytometry titration on KOPT-K1 cells, anti-Fab secondary antibody (FIG. 3B)
[2] = biological target: B3; test: cell-based or functional assay
[3] = biological target: T1, CD99 peptide containing the 10A1 epitope, Ac-GENDDPRPPNPPKPM-amide (human); test: X-ray crystal structure of the complex, 3.10 Å
T1 construct: Synthetic peptide (New England Peptide); also called residues 62-76
T1 peptide: Ac-GENDDPRPPNPPKPM-NH2

[4] = biological target: T2, tetravalent SAV-10A1 Fab complex (A4 streptavidin with biotinylated 10A1 Fab) (UniProt P22629 37-163, limits assumed, biotin on the C-terminal AviTag of the Fab heavy chain); test: flow cytometry titration on KOPT-K1 cells (FIG. 4C)
T2 construct: also called tetravalent SAV-Fab complex; not shown: N-terminal 6xHis tag
T2 sequence (P22629 37-163 limits assumed, one chain of several): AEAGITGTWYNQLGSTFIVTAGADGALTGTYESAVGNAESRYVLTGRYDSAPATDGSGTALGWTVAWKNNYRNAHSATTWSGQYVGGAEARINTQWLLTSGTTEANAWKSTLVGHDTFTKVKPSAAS

Binder: B1
maximum fluorescence intensity relative to the bivalent and dodecavalent antibodies [1]: ~0.5 fold
IC50 of cytotoxicity (Annexin V, KOPT-K1 cells, 18 hours) [2]: 82 nM Fv

Binder: B2
binding result [3]: binds

Binder: B3
binding result [4]: binds
